Experimental findings from US20100256217A1 (University of Pennsylvania, published 2010) are described below.

The assay addresses T1, human CK2β subunit, cloned from HeLa cell cDNA (pcCK2β) (human, UniProt P67870 1-215).
T1 construct: 35S-labeled in vitro translated protein in the in vitro assay; Expressed in transfected 293T cells in the in vivo assay; also called CKβ; CK2 beta
Description: in vitro binding assay, 35S-labeled in vitro translated proteins, co-immunoprecipitation with anti-His or anti-CK2β, autoradiography.

T1 sequence (P67870 whole entry): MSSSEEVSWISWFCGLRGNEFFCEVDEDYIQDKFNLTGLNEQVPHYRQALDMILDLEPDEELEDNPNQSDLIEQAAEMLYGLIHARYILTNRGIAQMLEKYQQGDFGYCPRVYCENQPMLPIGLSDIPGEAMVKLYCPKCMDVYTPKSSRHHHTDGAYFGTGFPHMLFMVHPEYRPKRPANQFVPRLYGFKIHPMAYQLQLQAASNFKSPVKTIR

B1: West Nile virus capsid protein with a C-terminal polyhistidine tag, encoded by pcWNV C-His (other)
chain: MSKKPGGPGKSRAVNMLKRGMPRVLSLIGLKRAMLSLIDGKGPIRFVLALLAFFRFTAIAPTRAVLDRWRGVNKQTAMKHLLSFKKELGTLTSAINRRSSKQKKRGGKTGIAVMIGLIASVGA
notes: The capsid is its N-terminal part; also called WNV Cp; protein C; not shown: C-terminal polyhistidine tag from the pcDNA3.1 V5/HisA vector
On to B1, for which the binding result is on record as “no binding”.
